Substitutions are numbered along the chain they refer to.
Legend:
hiR2-FL-M591A-T7 = molecular target: T1, hiR2-FL-M591A-T7 (human, UniProt Q6PJF5 1-856); experiment: FACS on MEF-DKO cells expressing the variant, 3 µg/ml antibody
T1 sequence: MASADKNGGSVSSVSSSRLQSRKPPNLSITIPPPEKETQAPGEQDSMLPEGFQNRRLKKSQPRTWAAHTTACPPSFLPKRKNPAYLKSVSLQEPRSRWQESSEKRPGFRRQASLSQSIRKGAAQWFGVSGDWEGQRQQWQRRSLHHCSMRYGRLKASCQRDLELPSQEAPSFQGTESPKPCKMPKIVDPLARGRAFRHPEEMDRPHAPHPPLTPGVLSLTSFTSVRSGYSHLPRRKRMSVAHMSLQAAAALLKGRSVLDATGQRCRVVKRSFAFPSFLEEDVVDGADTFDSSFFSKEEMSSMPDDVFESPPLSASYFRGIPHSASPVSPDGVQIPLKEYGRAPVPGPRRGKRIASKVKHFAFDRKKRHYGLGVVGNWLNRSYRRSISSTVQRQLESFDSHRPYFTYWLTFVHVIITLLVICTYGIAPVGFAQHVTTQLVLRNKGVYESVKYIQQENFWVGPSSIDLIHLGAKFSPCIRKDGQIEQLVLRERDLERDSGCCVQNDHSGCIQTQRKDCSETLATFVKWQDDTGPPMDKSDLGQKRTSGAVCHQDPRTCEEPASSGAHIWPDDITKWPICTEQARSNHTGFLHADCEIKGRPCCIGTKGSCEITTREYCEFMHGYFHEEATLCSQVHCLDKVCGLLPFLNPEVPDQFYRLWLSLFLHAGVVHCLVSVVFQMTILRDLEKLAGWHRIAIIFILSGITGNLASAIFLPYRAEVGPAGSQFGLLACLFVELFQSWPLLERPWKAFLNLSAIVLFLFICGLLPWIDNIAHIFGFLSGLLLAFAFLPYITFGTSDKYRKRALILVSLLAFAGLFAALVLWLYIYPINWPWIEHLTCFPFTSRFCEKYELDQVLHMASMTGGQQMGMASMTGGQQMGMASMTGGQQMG
How it was run: (§1)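 Cells stained with purified antibody at 3 μg/ml for 1 h on ice, then with PE-conjugated goat anti-mouse IgG F(ab′)2 (1:100) for 1 h on ice in the dark. Binding read by flow cytometry; buffer-only staining as control.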

hiR2-FL-P532A-T7 = molecular target: T2, hiR2-FL-P532A-T7 (human, UniProt Q6PJF5 1-856); experiment: as above
T2 sequence: T1 sequence with P532A, A591M
How it was run: as §1

B1: antibody 48 (antibody, V domains shown)
VH: QVQLQQSGTELVRPGTSVKVSCKASGYAFTNYLIEWVKQRPGQGLEWIGVINPGSGFTKYNEKFKGKATLTADKSSSTVYMHLSSLTSEDSAVYFCARGLYRAMDYWGQGTSVTVSS
VL: DIQMTQSPASQSASLGESVTITCLASQTIATWLAWYQQKPGKSPQLLIYGATTLADGVPSRFSGGGSGTKFSFKISSLQAEDFVSYYCQQLYSTPYTFGGGTKLEIK
notes: mouse IgG, kappa light chain; also called clone #48; purified antibody 48
**Q.** How did the “loss of binding vs wild type” value (hiR2-FL-M591A-T7) turn out when B1 was run?
**A.** ≥ 30%

B2: antibody 50 (antibody, V domains shown)
VH: B1 VH with T9A, T16A, T30S, V79A, H82Q
VL: B1 VL with A30G, G50A, T52A, T53S, S85N, L91I
notes: mouse IgG, kappa light chain; also called clone #50; purified antibody 50
**Q.** How did the “loss of binding vs wild type” value (hiR2-FL-M591A-T7) turn out when B2 was run?
**A.** ≥ 30%

B3: antibody 5 (antibody, V domains shown)
VH: QVTLKESGPGILQPSQTLSLTCSFSGFSLSTFGMGVGWIRQPSGKGLEWLAHIWWDDEKYYNSALKSRLTISKATSKNQAFLKIANVDTADTATYYCARISNYGSNYWYFNVWGTGTTVTVSS
VL: QVVLTQSPALMSASPGEKVTMTCSAGSSVSCMYWYQQKPGSSPRVLIYDTSNLASGVPARFTGSGSGTSYSLTISRMEAEDAASYYCQQWNSYPLTFGAGTKLELK
notes: mouse IgG, kappa light chain; also called clone #5; purified antibody 5
**Q.** Which “loss of binding vs wild type” value (hiR2-FL-P532A-T7) does the source give for B3 here?
**A.** ≥ 30%

B4: antibody 44 (antibody, V domains shown)
VH: B3 VH with G44E, E58D, S63P, A74D, A80I, A85T, D91E, A98S, S101G, N111D
VL: QIVLTQSPAVMSASPGEKVTMTCTASSSVYYMYWYQQTPGSSPRLLIYDTSNLASGVPVRFSGSGSGTSYSLTISRMEAEDAATYYCQQWNTYPLTFGAGTKLELK
notes: mouse IgG, kappa light chain; also called clone #44; purified antibody 44
**Q.** How did the “loss of binding vs wild type” value (hiR2-FL-P532A-T7) turn out when B4 was run?
**A.** ≥ 30%

Reference: patent publication US20240287172A1 (SCIRHOM, published 2024)
